Measured values as given in patent US20230265151A1, “GIP/GLP1 CO-AGONIST COMPOUNDS” (priority 2020, published 2023).
Numbering of substitutions follows the chain as printed.

T1: human glucose-dependent insulinotropic polypeptide (GIP) receptor (human, UniProt P48546 22-466)
T1 sequence (looked up): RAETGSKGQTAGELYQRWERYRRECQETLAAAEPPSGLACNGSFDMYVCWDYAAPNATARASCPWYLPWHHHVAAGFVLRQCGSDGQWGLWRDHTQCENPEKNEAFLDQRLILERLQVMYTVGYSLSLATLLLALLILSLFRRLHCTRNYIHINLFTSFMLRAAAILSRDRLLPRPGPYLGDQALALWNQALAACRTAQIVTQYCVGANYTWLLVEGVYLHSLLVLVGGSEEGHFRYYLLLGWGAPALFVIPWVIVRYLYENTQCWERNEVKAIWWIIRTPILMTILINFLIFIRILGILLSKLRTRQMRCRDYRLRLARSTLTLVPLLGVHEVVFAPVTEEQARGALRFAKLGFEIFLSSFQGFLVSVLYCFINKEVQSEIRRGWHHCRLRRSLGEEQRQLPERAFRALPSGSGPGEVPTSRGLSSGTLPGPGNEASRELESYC

T2: human GIP receptor (human, UniProt P48546 22-466)
T2 sequence (looked up): T1 sequence (looked up)

B1: Example 265 (peptide)
peptide: YXEGTXTSDXSIXLDXKAQXKFIXXLIEGGPSSGAPPPS
modifications: Aib2, αMeF(2F)6, OMeY10, αMeL13, Orn16, K17(Z), Aib20, K21(Z), D-Glu24, αMeY25, C-terminal NH2; Z = AEEA2-CO-(CH2)12-CO2H
B2: Example 266 (peptide)
peptide: B1 peptide with K21E, E28K
modifications: Aib2, αMeF(2F)6, OMeY10, αMeL13, Orn16, K17(Z), Aib20, D-Glu24, αMeY25, K28(Z), C-terminal NH2; Z = AEEA2-CO-(CH2)12-CO2H
B3: Example 250 (peptide)
peptide: B1 peptide with K21E, E28K
modifications: Aib2, αMeF(2F)6, 2Nal10, αMeL13, Orn16, K17(Z), Aib20, D-Glu24, αMeY25, K28(Z), C-terminal NH2; Z = AEEA2-(γ-Glu)-CO-(CH2)12-CO2H
B4: Example 224 (peptide)
peptide: B1 peptide with K21E, E28K
modifications: Aib2, αMeF(2F)6, 4Pal10, αMeL13, Orn16, K17(Z), Aib20, D-Glu24, αMeY25, K28(Z), C-terminal NH2; Z = AEEA3-(γ-Glu)-CO-(CH2)12-CO2H
B5: Example 202 (peptide)
peptide: B1 peptide with S11X, K21E, P31K
modifications: Aib2, αMeF(2F)6, 4Pal10, Tle11, αMeL13, Orn16, K17(Z), Aib20, D-Glu24, αMeY25, K31(Z), C-terminal NH2; Z = AEEA2-(γ-Glu)-CO-(CH2)12-CO2H
B6: Example 256 (peptide)
peptide: B1 peptide with K21E, E28K
modifications: Aib2, αMeF(2F)6, 2Nal10, αMeL13, Orn16, K17(Z), Aib20, D-Glu24, αMeY25, K28(Z), C-terminal NH2; Z = AEEA2-CO-(CH2)12-CO2H
B7: Example 211 (peptide)
peptide: B1 peptide with S11X, K21E, P31K
modifications: Aib2, αMeF(2F)6, 4Pal10, Ac5c11, αMeL13, Orn16, K17(Z), Aib20, D-Glu24, αMeY25, K31(Z), C-terminal NH2; Z = AEEA2-(γ-Glu)-CO-(CH2)12-CO2H
B8: Example 260 (peptide)
peptide: B1 peptide with K21E, E28K
modifications: Aib2, αMeF(2F)6, OMeY10, αMeL13, Orn16, K17(Z), Aib20, D-Glu24, αMeY25, K28(Z), C-terminal NH2; Z = AEEA2-(γ-Glu)-CO-(CH2)12-CO2H
B9: Example 249 (peptide)
peptide: B1 peptide
modifications: Aib2, αMeF(2F)6, 2Nal10, αMeL13, Orn16, K17(Z), Aib20, K21(Z), D-Glu24, αMeY25, C-terminal NH2; Z = AEEA2-(γ-Glu)-CO-(CH2)12-CO2H
B10: Example 203 (peptide)
peptide: B1 peptide with K17I, K21E, X24K, E28K
modifications: Aib2, αMeF(2F)6, 4Pal10, αMeL13, Orn16, Aib20, K24(Z), αMeY25, K28(Z), C-terminal NH2; Z = AEEA2-(γ-Glu)-(4-(4-tert-butylphenyl)butanoyl)
B11: Example 253 (peptide)
peptide: B1 peptide with K17I, E28K
modifications: Aib2, αMeF(2F)6, 2Nal10, αMeL13, Orn16, Aib20, K21(Z), D-Glu24, αMeY25, K28(Z), C-terminal NH2; Z = AEEA2-(γ-Glu)-CO-(CH2)12-CO2H
B12: Example 262 (peptide)
peptide: B1 peptide with K17I, K21E, X24K, E28K
modifications: Aib2, αMeF(2F)6, OMeY10, αMeL13, Orn16, Aib20, K24(Z), αMeY25, K28(Z), C-terminal NH2; Z = AEEA2-(γ-Glu)-CO-(CH2)12-CO2H
B13: Example 252 (peptide)
peptide: B1 peptide with K17I, K21E, X24K, E28K
modifications: Aib2, αMeF(2F)6, 2Nal10, αMeL13, Orn16, Aib20, K24(Z), αMeY25, K28(Z), C-terminal NH2; Z = AEEA2-(γ-Glu)-CO-(CH2)12-CO2H
B14: Example 263 (peptide)
peptide: B1 peptide with K17I, E28K
modifications: Aib2, αMeF(2F)6, OMeY10, αMeL13, Orn16, Aib20, K21(Z), D-Glu24, αMeY25, K28(Z), C-terminal NH2; Z = AEEA2-(γ-Glu)-CO-(CH2)12-CO2H
B15: Example 222 (peptide)
peptide: B1 peptide with K17I, E28K
modifications: Aib2, αMeF(2F)6, 4Pal10, αMeL13, Orn16, Aib20, K21(Z), D-Glu24, αMeY25, K28(Z), C-terminal NH2; Z = AEEA2-CO-(CH2)12-CO2H
B16: Example 227 (peptide)
peptide: B1 peptide with K17I, E28K
modifications: Aib2, αMeF(2F)6, 4Pal10, αMeL13, Orn16, Aib20, K21(Z), D-Glu24, αMeY25, K28(Z), C-terminal NH2; Z = AEEA3-(γ-Glu)-CO-(CH2)12-CO2H
B17: Example 226 (peptide)
peptide: B1 peptide with K17I, K21E, X24K, E28K
modifications: Aib2, αMeF(2F)6, 4Pal10, αMeL13, Orn16, Aib20, K24(Z), αMeY25, K28(Z), C-terminal NH2; Z = AEEA3-(γ-Glu)-CO-(CH2)12-CO2H
B18: Example 204 (peptide)
peptide: B1 peptide with K17I, E28K
modifications: Aib2, αMeF(2F)6, 4Pal10, αMeL13, Orn16, Aib20, K21(Z), D-Glu24, αMeY25, K28(Z), C-terminal NH2; Z = AEEA2-(γ-Glu)-(4-(4-tert-butylphenyl)butanoyl)
B19: Y-Aib-EGT-αMeF(2F)-TSD-4Pal-SI-αMeL-LD-Orn-IAQ-Aib-EFIK((εK)-(εK)-(γ-Glu)-CO-(CH2)12-CO2H)-αMeY-LIEGGK((εK)-(εK)-(γ-Glu)-CO-(CH2)12-CO2H)SSGAPPPS-NH2 (peptide)
peptide: B1 peptide with K17I, K21E, X24K, P31K
modifications: Aib2, αMeF(2F)6, 4Pal10, αMeL13, Orn16, Aib20, αMeY25; acylated K24, K31 (groups as in name); C-terminal amide
B20: Y-Aib-EGT-αMeF(2F)-TSD-4Pal-SI-αMeL-LD-Orn-IAQ-Aib-EFIK((2-[2-(2-Amino-ethoxy)-ethoxy]-acetyl)2-(γ-Glu)-(4-(4-tert-butylphenyl)butanoyl))-αMeY-LIK((2-[2-(2-Amin … (peptide)
peptide: B1 peptide with K17I, K21E, X24K, E28K
modifications: Aib2, αMeF(2F)6, 4Pal10, αMeL13, Orn16, Aib20, αMeY25; acylated K24, K28 (groups as in name); C-terminal amide

The binders below were run against T1, human glucose-dependent insulinotropic … (assay: cell-based or functional assay).

Row | Binder | cAMP EC50 [nM] | cAMP Emax [%]
1 | B1 | 0.0145 | –
2 | B2 | 0.0136 | –
3 | B3 | 0.021 | –
4 | B4 | 0.0374 | –
5 | B5 | 0.057 | 86
6 | B6 | 0.0175 | –
7 | B7 | 0.0465 | 91.6
8 | B8 | 0.0239 | –
9 | B9 | 0.0201 | –
10 | B10 | 0.0721 | –
11 | B11 | 0.0295 | –
12 | B12 | 0.0327 | –
13 | B13 | 0.049 | –
14 | B14 | 0.0214 | 88.6
15 | B15 | 0.0195 | –
16 | B16 | 0.0224 | –
17 | B17 | 0.0232 | –
18 | B18 | 0.0304 | –

Each binder was assayed against human glucagon-like peptide-1 (GLP-1) receptor (human, UniProt P43220 24-463) (assay: cell-based or functional assay).

Row | Binder | cAMP EC50 [nM] | cAMP Emax [%]
19 | B1 | 0.262 | –
20 | B2 | 0.282 | 90.5
21 | B3 | 0.414 | –
22 | B4 | 7.51 | 88.4
23 | B5 | 0.944 | 92.2
24 | B6 | 0.249 | –
25 | B7 | 3.55 | 93.1
26 | B8 | 0.547 | –
27 | B9 | 0.3 | –
28 | B10 | 0.535 | –
29 | B11 | 0.43 | –
30 | B12 | 0.472 | –
31 | B13 | 0.555 | –
32 | B14 | 0.294 | –
33 | B15 | 0.518 | –
34 | B16 | 1.22 | –
35 | B17 | 0.611 | –
36 | B18 | 0.47 | 126

These binders were tested against human glucagon receptor (human, UniProt P47871 26-477) (assay: cell-based or functional assay).

Row | Binder | cAMP EC50 [nM]
37 | B1 | > 9950
38 | B2 | > 9950
39 | B3 | > 9950
40 | B4 | > 9950
41 | B5 | > 9950
42 | B6 | > 9950
43 | B7 | > 9950
44 | B8 | > 9950
45 | B9 | > 9950
46 | B10 | > 9950
47 | B11 | > 9950
48 | B12 | > 9950
49 | B13 | > 9950
50 | B14 | > 9950
51 | B15 | > 9950
52 | B16 | > 9950
53 | B17 | > 9950
54 | B18 | > 9950

These binders were tested against T2, human GIP receptor (assay: cell-based or functional assay).

Row | Binder | cAMP EC50 (1.0% HSA) [nM]
55 | B19 | 1.06
56 | B20 | 0.682

Target: human glucagon receptor (human, UniProt P47871 26-477)
Test: cell-based or functional assay
Remark: another data set of the same source

Row | Binder | cAMP EC50 (1.0% HSA) [nM]
57 | B19 | > 9950
58 | B20 | > 9950
